Test results as given in paper PMC6547884, “Molecular Basis for poly(A) RNP Architecture and Recognition by the Pan2-Pan3 Deadenylase” (Cell, 2019).
One block for each binder: values may come before it.

Assays:
[1] = biological target: the molecule itself; assay: cryo-EM structure; Pan2cat-Pan3 with 90A RNA and three Pab1, reconstituted as for SEC and purified on Superose 6; overall nominal resolution 4.8 Å, focused maps 4.7 and 4.5 Å
[2] = biological target: the molecule itself; assay: cryo-EM structure; substrate-free Pan2cat-Pan3Δ(1-162); Volta phase plate; nominal global resolution about 4.5 Å
[3] = biological target: T1, Ccr4(110-837)-Caf1(146-433) complex (S. cerevisiae, UniProt P31384 110-837; P39008 146-433); assay: SEC; reconstitution: purified Not1(754-1000) mixed with Ccr4(110-837)-Caf1(146-433) in equimolar amounts; Superdex200 16/60, 20 mM Tris pH 7.5, 250 mM NaCl, 1 mM DTT; settings: both partners purified
T1 construct: The complex is His-tagged; also called core yeast Ccr4-Caf1 nucleases; source: Trichoplusia ni Hi5 insect cells (pFastBac DUAL), purified (IMAC, heparin, SEC)
T1 sequence (looked up) 1: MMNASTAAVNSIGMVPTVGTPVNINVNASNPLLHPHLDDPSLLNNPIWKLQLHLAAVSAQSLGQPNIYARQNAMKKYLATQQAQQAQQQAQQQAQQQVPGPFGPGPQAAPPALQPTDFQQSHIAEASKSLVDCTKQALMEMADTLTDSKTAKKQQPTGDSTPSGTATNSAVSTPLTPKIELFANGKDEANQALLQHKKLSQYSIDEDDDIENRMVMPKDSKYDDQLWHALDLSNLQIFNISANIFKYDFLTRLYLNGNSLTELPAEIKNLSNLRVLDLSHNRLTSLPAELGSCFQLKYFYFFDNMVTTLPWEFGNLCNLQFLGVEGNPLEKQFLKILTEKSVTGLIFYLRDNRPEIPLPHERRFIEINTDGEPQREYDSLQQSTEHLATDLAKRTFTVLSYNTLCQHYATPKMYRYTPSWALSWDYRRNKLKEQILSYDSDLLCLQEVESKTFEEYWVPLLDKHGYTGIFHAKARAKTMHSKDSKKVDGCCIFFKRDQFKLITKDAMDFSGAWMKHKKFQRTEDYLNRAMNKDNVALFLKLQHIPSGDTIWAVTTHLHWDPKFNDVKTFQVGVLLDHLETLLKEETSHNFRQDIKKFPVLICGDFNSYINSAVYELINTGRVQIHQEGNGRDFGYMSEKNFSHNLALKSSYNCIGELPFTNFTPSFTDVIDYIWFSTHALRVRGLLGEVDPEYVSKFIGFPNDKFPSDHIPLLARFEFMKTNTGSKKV
T1 sequence (looked up) 2: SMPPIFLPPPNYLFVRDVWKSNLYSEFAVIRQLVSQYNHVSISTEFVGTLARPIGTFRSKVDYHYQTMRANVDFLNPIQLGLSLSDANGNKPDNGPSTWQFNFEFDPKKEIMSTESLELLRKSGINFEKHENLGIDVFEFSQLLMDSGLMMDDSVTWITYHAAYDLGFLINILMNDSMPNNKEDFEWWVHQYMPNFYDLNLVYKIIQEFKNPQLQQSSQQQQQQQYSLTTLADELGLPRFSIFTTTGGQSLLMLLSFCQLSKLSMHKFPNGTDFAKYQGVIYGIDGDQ

B1: Pan3 (S. cerevisiae, C-terminal deca-histidine tag) (natural protein, UniProt P36102 1-679, looked up)
chain: MDKINPDWAKDIPCRNITIYGYCKKEKEGCPFKHSDNTTATTINDVPPPIDVGEATTPTMTSVPKFNAKVSASFTPMTVGSDSLTTVTNTTSAATNATGNIAMAATSATASTVNPMINPIVNSSLVNNNNNNSNISISIPTTASSSNYDPFNAPIFTPSSTSSIHTNANAHSFPFPSIANSGGININATDDNSNNMSMANNVPPPMQPPPIESSNLKYPRIYPPPHSLLQYHLYAPEQPSSLKSLLKPNERSADQLFIPNNIREDLTKKNLSILQVFPSSGKVIPSIVQDYFNLVPLNFNNNDFLNKTTLFKVFSNYDGKAYVLKRLPNIDKSMNPNKISKIYQIWSKINCTNLIKFRDIFQTTKFGDLSICLVFDYYPNSLSLYDYHFVNFPKFPITNNYLWIYLVQLTNVINSIHSQNLSIGNTLNWRKVLITGDPGRIKLSHCNFMDLLFNDDTDTVVSSGGSTIEGQQQLDYKYLGELLFNLSINIENSNNNTAPKEYRLEEITPQSIDDMRQIDDKFKDVLKYLISDNGDSKKSIHDLTSHFYDKMFMVLESSQTYTEYMESVLSRELENGRLFRLVNKLNCIFGRIESRIDINWSESGTKFPIILFYDYVFHQVDSNGKPIMDLTHVLRCLNKLDAGIQEKLMLVTPDELNCIIISYKELKDLIESTFRSITQ
notes: Pan3, S. cerevisiae; The Pan3 chain of m1, written alone for the pairs that touch in the structure and for co-purification; also called Pan3straight; Pan3bent; source: Trichoplusia ni Hi5 insect cells, co-expressed with Pan2, purified as a complex; not shown: His10, C-terminal, kept
stoichiometry N [1]: 2

B2: Pan3Δ(1-162) (domain or fragment, S. cerevisiae, UniProt P36102 163-679, looked up)
chain: SIHTNANAHSFPFPSIANSGGININATDDNSNNMSMANNVPPPMQPPPIESSNLKYPRIYPPPHSLLQYHLYAPEQPSSLKSLLKPNERSADQLFIPNNIREDLTKKNLSILQVFPSSGKVIPSIVQDYFNLVPLNFNNNDFLNKTTLFKVFSNYDGKAYVLKRLPNIDKSMNPNKISKIYQIWSKINCTNLIKFRDIFQTTKFGDLSICLVFDYYPNSLSLYDYHFVNFPKFPITNNYLWIYLVQLTNVINSIHSQNLSIGNTLNWRKVLITGDPGRIKLSHCNFMDLLFNDDTDTVVSSGGSTIEGQQQLDYKYLGELLFNLSINIENSNNNTAPKEYRLEEITPQSIDDMRQIDDKFKDVLKYLISDNGDSKKSIHDLTSHFYDKMFMVLESSQTYTEYMESVLSRELENGRLFRLVNKLNCIFGRIESRIDINWSESGTKFPIILFYDYVFHQVDSNGKPIMDLTHVLRCLNKLDAGIQEKLMLVTPDELNCIIISYKELKDLIESTFRSITQ
notes: Pan3, S. cerevisiae, lacking residues 1-162; Pan3 chain of the substrate-free Pan2cat-Pan3Δ(1-162) cryo-EM sample; also called Pan3ΔN; source: Trichoplusia ni Hi5 insect cells, co-expressed with Pan2cat, purified as a complex
stoichiometry N [2]: 2

binding result [3]: binds
B3: Not1(754-1000) (domain or fragment, S. cerevisiae, UniProt P25655 754-1000, looked up)
chain: RSRPVQEMIPLKFFAVDEVSCQINQEGAPKDVVEKVLFVLNNVTLANLNNKVDELKKSLTPNYFSWFSTYLVTQRAKTEPNYHDLYSKVIVAMGSGLLHQFMVNVTLRQLFVLLSTKDEQAIDKKHLKNLASWLGCITLALNKPIKHKNIAFREMLIEAYKENRLEIVVPFVTKILQRASESKIFKPPNPWTVGILKLLIELNEKANWKLSLTFEVEVLLKSFNLTTKSLKPSNFINTPEVIETLSG
notes: source: E. coli BL21 DE3, purified (IMAC, tag cleavage, heparin, SEC); not shown: SUMO, N-terminal, cleaved; His tag, N-terminal, cleaved
